In the supplement of paper PMC7877785:
± gives the uncertainty stated by the source.

Experiment: self-splicing fitness, log relative to wild type (ln ratio); higher = more splicing; Tetrahymena group I intron in knt gene, E. coli kanamycin selection, DiMSum; sequences stand for … in CUCUCU…GGAGGGAAAAGUUAUCAGGCAUGCACCUGGUAGCUAGUCUUUAAACCAAUAGAUUGCAUCGGUUUAAAAGGCAAGACCGUCAAAUUGCGGGAAAGGGGUCAACAGCCGUUCAGUACCAAGUCUCAGGGGAAACUUUGAGAUGGCCUUGCAAAGGGUAUGGUAAUAAGCUGACGGACAUGGUCCUAACCACGCAGCCAAGUCCUAAGUCAACAGAUCUUCUGUUGAUAUGGAUGCAGUUCACAGACUAAAUGUCGGUCGGGGAAGAUGUAUUCUUCUCAUAAGAUAUAGUCGGACCUCUCCUUAAUGGGAGCUAGCGGAUGAAGUGAUGCAACACUGGAGCCGCUGGGAACUAAUUUGUAUGCGAAAGUAUAUUGAUUAGUUUUGGAGUACUCGUGGUCG
Summary of the method: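 Six replicate transformations of E. coli BL21(DE3) with a pET-22b(+) library were grown overnight at 37°C or 30°C. The library randomised all eight P1ex-region intron nucleotides, the intron lying in the knt kanamycin-resistance gene, and plates were LB agar with or without 25 μg/mL kanamycin plus 100 μg/mL carbenicillin, 50 μM IPTG and 0.2% rhamnose. Pooled colonies were amplicon-sequenced on an Illumina HiSeq 2500, and fitness is the DiMSum error-weighted combination of wild-type-normalised replicate fold changes, kanamycin versus none.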

| Sequence | self-splicing fitness (ln) (30 °C) | self-splicing fitness (ln) (37 °C) |
| --- | --- | --- |
| UAUUAGCAAUAUUACGUUGA | -3.32 ± 0.29 | -2.17 ± 0.23 |
| AAAGAGCAAUAUUACGCUGG | -4.07 ± 0.32 | -1.89 ± 0.31 |
| UGUUAGCAAUAUUACGUUAA | -1.85 ± 0.27 | -0.838 ± 0.15 |
| CGGGAGCAAUAUUACGGGGC | – | -2.14 ± 0.43 |
| AUUAAGCAAUAUUACGACAG | -1.91 ± 0.16 | -1.47 ± 0.19 |
| UGCGAGCAAUAUUACGGCAA | -2.3 ± 0.4 | -0.0535 ± 0.27 |
| UACUAGCAAUAUUACGUCGA | -2.11 ± 0.12 | -0.821 ± 0.12 |
| GUAUAGCAAUAUUACGUUAU | -3.09 ± 0.36 | -1.99 ± 0.21 |
| UAAGAGCAAUAUUACGAUCC | -1.81 ± 0.36 | – |
| AUGUAGCAAUAUUACGCUGC | -2.72 ± 0.41 | -2.69 ± 0.48 |
| AAAGAGCAAUAUUACGGCCG | -1.78 ± 0.18 | -0.0792 ± 0.23 |
| CGGGAGCAAUAUUACGCGAU | – | -1.6 ± 0.41 |
| UAUAAGCAAUAUUACGGCUU | -1.22 ± 0.12 | -0.669 ± 0.16 |
| CGGAAGCAAUAUUACGUGUU | -3.75 ± 0.17 | -2.43 ± 0.17 |
| UCCAAGCAAUAUUACGUCCU | -4.09 ± 0.31 | -2.95 ± 0.43 |
| ACUUAGCAAUAUUACGGUUG | -3.15 ± 0.17 | -1.43 ± 0.15 |
| CGCUAGCAAUAUUACGCACG | -2.53 ± 0.17 | -2.06 ± 0.24 |
| ACGGAGCAAUAUUACGUGCU | -2.34 ± 0.19 | – |

| Sequence | self-splicing fitness (ln) (30 °C) | self-splicing fitness (ln) (37 °C) |
| --- | --- | --- |
| AGAUAGCAAUAUUACGCAGG | -1.91 ± 0.17 | -0.155 ± 0.19 |
| GUCAAGCAAUAUUACGUACU | -1.98 ± 0.13 | -0.175 ± 0.12 |
| CACCAGCAAUAUUACGUGAU | -3.47 ± 0.12 | -3 ± 0.19 |
| GUGGAGCAAUAUUACGCCUC | -3.07 ± 0.3 | -1 ± 0.25 |
| UUGAAGCAAUAUUACGCAGG | -1.15 ± 0.092 | -0.283 ± 0.098 |
| CAAGAGCAAUAUUACGUGUA | -3.48 ± 0.17 | -2.42 ± 0.17 |
| AGAUAGCAAUAUUACGGGUG | -2.83 ± 0.2 | -1.88 ± 0.21 |
| UUUCAGCAAUAUUACGUGAU | -2.58 ± 0.13 | -1.8 ± 0.18 |
| AAUAAGCAAUAUUACGCUCU | -0.422 ± 0.079 | -0.115 ± 0.09 |
| CGGGAGCAAUAUUACGGGAA | – | -1.85 ± 0.41 |
| CUAUAGCAAUAUUACGGUUC | -3.27 ± 0.25 | -2.12 ± 0.39 |
| AAGUAGCAAUAUUACGUCAG | -3.38 ± 0.19 | -2.43 ± 0.18 |
| AAUUAGCAAUAUUACGUUGC | -3.47 ± 0.46 | -2.75 ± 0.38 |
| CCGAAGCAAUAUUACGUCCG | -0.46 ± 0.11 | -0.429 ± 0.095 |
| UAAUAGCAAUAUUACGCCCG | – | 0.42 ± 0.42 |
| AACCAGCAAUAUUACGUGUA | -0.891 ± 0.041 | -0.409 ± 0.049 |
| CGCUAGCAAUAUUACGGAGU | -3.65 ± 0.27 | -2.42 ± 0.25 |
